Source: US10683329B2, “Dual-site BACE1 inhibitors” (priority 2014, dated 2020)
*1 amine or outer side, *2 acyl side, *3 side chain or, on linkers, in order; H or OH if unused. Where no end group is shown, it is not given here. [ ]: non-standard residue; d: D form. The star is where a group is joined. Chol‑27‑TFA‑ester = succinamic acid (3S,8S,9S,10R,13R,14S,17R)-17-[(1R,5R)-1,5-dimethyl-6-(2,2,2-trifluoro-acetoxy)-hexyl]-10,13-dimethyl-2,3,4,7,8,9,10,11,12,13,14,15,16,17-tetradecahydro-1H-cyclopenta[a]phenanthren-3-yl ester, C[C@H](CCC[C@@H](C)[C@H]1CC[C@H]2[C@@H]3CC=C4C[C@@H](OC(=O)CCC(=O)*)CC[C@]4(C)[C@H]3CC[C@]12C)COC(=O)C(F)(F)F; MetSta(3S,4S) = CSCC[C@H](N[*:1])[C@@H](O)CC(=O)[*:2]; Sta = CC(C)C[C@H](N)[C@@H](O)CC(=O)O; 27‑OH‑Chol = 27-hydroxycholesterol; PEG4 = NCCOCCOCCOCCOCCC(=O)O; Lauroyl = CCCCCCCCCCCC(=O)*; PEG3 = NCCOCCOCCOCCC(=O)O; Aun = NCCCCCCCCCCC(=O)O; Ahx = NCCCCCC(=O)O

B1: Tyr-Pro-Tyr-Phe-Ile-Pro-Leu-Gly-Gly-Gly-Glu-Val-Asn-Leu*Ala-Ala-Glu-DPro-Lys(Chol)-NH2 x TFA (peptide)
peptide: YPYFIPLGGGEVNLAAE[dP]K(Chol)-NH2
modifications: also: Leu14*Ala15 Tang hydroxyethylene dipeptide isostere, trifluoroacetate salt

molecular target: BACE1 enzyme (UniProt P56817 46-501, limits assumed); test: cell-based or functional assay
Sequence (P56817 46-501 limits assumed): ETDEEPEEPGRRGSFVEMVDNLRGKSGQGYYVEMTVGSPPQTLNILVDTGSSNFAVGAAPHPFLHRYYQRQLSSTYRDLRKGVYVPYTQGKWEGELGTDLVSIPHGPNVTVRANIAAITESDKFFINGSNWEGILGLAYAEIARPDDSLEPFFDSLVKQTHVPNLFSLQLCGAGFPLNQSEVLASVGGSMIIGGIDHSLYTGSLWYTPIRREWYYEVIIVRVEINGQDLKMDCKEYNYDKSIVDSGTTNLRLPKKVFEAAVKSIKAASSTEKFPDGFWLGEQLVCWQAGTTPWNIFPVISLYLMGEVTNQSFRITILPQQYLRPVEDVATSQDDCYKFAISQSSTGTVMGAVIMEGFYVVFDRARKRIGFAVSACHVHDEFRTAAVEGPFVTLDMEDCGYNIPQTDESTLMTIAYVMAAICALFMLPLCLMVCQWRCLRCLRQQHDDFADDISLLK

Binder	IC50, cellular Aβ-lowering assay (Aβ40 in supernatant of HEK293 cells expressing human APP695) [nM]
YPYKIPLG[dK]GEVN[Sta]VAE[dP]K(Chol'ester')-NH2 (also: x 3TFA salt)	2.3
YPYFIPLGGGEVN[Sta]VAE[dP]K(Chol‑27‑TFA‑ester)-NH2 (also: x TFA salt)	5.2
YPYFIPLG[dK]GEVN[Sta]VAE[dP]K(Chol'ester')-NH2 (also: x 2TFA salt)	0.025
YPYFKPLG[dK]GEVN[Sta]VAE[dP]K(Chol)-NH2 (also: 3TFA salt) [Tyr-Pro-Tyr-Phe-Lys-Pro-Leu-Gly-DLys-Gly-Glu-Val-Asn-Sta-Val-Ala-Glu-DPro-Lys(Chol)-NH2 x 3TFA]	0.0263
YPKFIPLG[dK]GEVN[Sta]VAE[dP]K(Chol)-NH2 (also: x 3TFA salt) [Tyr-Pro-Lys-Phe-Ile-Pro-Leu-Gly-DLys-Gly-Glu-Val-Asn-Sta-Val-Ala-Glu-DPro-Lys(Chol)-NH2 x 3TFA]	0.0203
YKYFIPLG[dK]GEVN[Sta]VAE[dP]K(Chol'ester')-NH2 (also: x 3TFA salt)	0.25
YPYFIPL[PEG4]EVN[Sta]VAE[dP]K(Chol)-NH2 (also: TFA salt) [Tyr-Pro-Tyr-Phe-Ile-Pro-Leu-PEG(4)-Glu-Val-Asn-Sta-Val-Ala-Glu-DPro-Lys(Chol)-NH2 x TFA]	0.027
YPYFIPLGGGGGEVNXVAEFK (MetSta at 16; DPhe at 20; Lys(Chol) at 21; C-terminal NH2)	0.07
YPYFIPLGGGEVN[Sta]VAE[dP]K(Chol'ether')-NH2 (also: x TFA salt) [Tyr-Pro-Tyr-Phe-Ile-Pro-Leu-Gly-Gly-Gly-Glu-Val-Asn-Sta-Val-Ala-Glu-DPro-Lys(Chol'ether')-NH2 x TFA]	0.0264
YPYFIPL[PEG4]EVN[MetSta(3S,4S)]VAE[dF]K(Chol)-NH2 (also: TFA salt) [Tyr-Pro-Tyr-Phe-Ile-Pro-Leu-PEG(4)-Glu-Val-Asn-MetSta-Val-Ala-Glu-DPhe-Lys(Chol)-NH2 x TFA]	0.018
YPKFKPLG[dK]GEVN[Sta]VAE[dP]K(Chol)-NH2 (also: x 4TFA salt) [Tyr-Pro-Lys-Phe-Lys-Pro-Leu-Gly-DLys-Gly-Glu-Val-Asn-Sta-Val-Ala-Glu-DPro-Lys(Chol)-NH2 x 4TFA]	0.0218
YPKFIPLG[dK]GEVN[Sta]VAE[dP]K(Chol'ether')-NH2 (also: x 3TFA salt)	0.00828
YPYFIKL[PEG4]EVN[Sta]VAE[dP]K(Chol)-NH2 (numbers in words are those of the source; also: x 2TFA salt) [Tyr-Pro-Tyr-Phe-Ile-Lys-Leu-PEG(4)-Glu-Val-Asn-Sta-Val-Ala-Glu-DPro-Lys(Chol)-NH2 x 2TFA]	0.0228
YPYFIPLGGKEVN[Sta]VAE[dP]K(Chol)-NH2 (also: 2TFA salt) [Tyr-Pro-Tyr-Phe-Ile-Pro-Leu-Gly-Gly-Lys-Glu-Val-Asn-Sta-Val-Ala-Glu-DPro-Lys(Chol)-NH2 x 2TFA]	0.0771
YPYFIPLGGGEVN[MetSta(3S,4S)]VAE[dF]K(C14)-NH2 (also: x TFA salt) [Tyr-Pro-Tyr-Phe-Ile-Pro-Leu-Gly-Gly-Gly-Glu-Val-Asn-MetSta-Val-Ala-Glu-DPhe-Lys(C14)-NH2 x TFA]	1260
YPYFIKLGGGEVN[Sta]VAE[dP]K(Chol)-NH2 (also: x 2TFA salt) [Tyr-Pro-Tyr-Phe-Ile-Lys-Leu-Gly-Gly-Gly-Glu-Val-Asn-Sta-Val-Ala-Glu-DPro-Lys(Chol)-NH2 x 2TFA]	0.0117
YPYFIPLGGGGEVNXVAEFK (MetSta at 15; DPhe at 19; Lys(Chol) at 20; C-terminal NH2) [Tyr-Pro-Tyr-Phe-Ile-Pro-Leu-Gly-Gly-Gly-Gly-Glu-Val-Asn-MetSta-Val-Ala-Glu-DPhe-Lys(Chol)-NH2 x TFA]	0.052
YPYFIPLGGGGGGEVN[Sta]VAE[dP]K(Chol)-NH2 (also: TFA salt)	0.028
YPYFIKLG[dK]GEVN[Sta]VAE[dP]K(Chol)-NH2 (also: x 3TFA salt) [Tyr-Pro-Tyr-Phe-Ile-Lys-Leu-Gly-DLys-Gly-Glu-Val-Asn-Sta-Val-Ala-Glu-DPro-Lys(Chol)-NH2 x 3TFA]	0.0176
YPYFKPLGGGEVN[Sta]VAE[dP]K(Chol)-NH2 (also: 2TFA salt) [Tyr-Pro-Tyr-Phe-Lys-Pro-Leu-Gly-Gly-Gly-Glu-Val-Asn-Sta-Val-Ala-Glu-DPro-Lys(Chol)-NH2 x 2TFA]	0.00732
YPYFIPL[PEG3]EVN[MetSta(3S,4S)]VAE[dF]K(Chol)-NH2 (also: TFA salt) [Tyr-Pro-Tyr-Phe-Ile-Pro-Leu-PEG(3)-Glu-Val-Asn-MetSta-Val-Ala-Glu-DPhe-Lys(Chol)-NH2 x TFA]	0.036
Ac-YPYFIPL[PEG4]EVN[Sta]VAE[dP]K(Chol)-NH2 [Ac-Tyr-Pro-Tyr-Phe-Ile-Pro-Leu-PEG(4)-Glu-Val-Asn-Sta-Val-Ala-Glu-DPro-Lys(Chol)-NH2]	0.041

Binder	IC50, cellular Aβ-lowering assay (Aβ40 in supernatant of HEK293 cells expressing human APP695) [nM]
YPYFKPL[PEG4]EVN[Sta]VAE[dP]K(Chol)-NH2 (numbers in words are those of the source; also: 2TFA salt) [Tyr-Pro-Tyr-Phe-Lys-Pro-Leu-PEG(4)-Glu-Val-Asn-Sta-Val-Ala-Glu-DPro-Lys(Chol)-NH2 x 2TFA]	0.0235
Ac-YPYFIPLGGGEVN[Sta]VAE[dP]K(Chol)-NH2 (also: x TFA salt) [Ac-Tyr-Pro-Tyr-Phe-Ile-Pro-Leu-Gly-Gly-Gly-Glu-Val-Asn-Sta-Val-Ala-Glu-DPro-Lys(Chol)-NH2]	0.017
YPYFIPLGKGEVN[Sta]VAE[dP]K(Chol)-NH2 (also: 2TFA salt) [Tyr-Pro-Tyr-Phe-Ile-Pro-Leu-Gly-Lys-Gly-Glu-Val-Asn-Sta-Val-Ala-Glu-DPro-Lys(Chol)-NH2 x 2TFA]	0.0295
KPYFIPLG[dK]GEVN[Sta]VAE[dP]K(Chol'ester')-NH2 (also: x 3TFA salt)	0.02
YPYFIPLGGGEVN[Sta]VAE[dP]K(27‑OH‑Chol)-NH2 (also: x TFA salt) [Tyr-Pro-Tyr-Phe-Ile-Pro-Leu-Gly-Gly-Gly-Glu-Val-Asn-Sta-Val-Ala-Glu-DPro-Lys(27-OH-Chol)-NH2 x TFA]	6.3
YPYFIPLGGGEVN[Sta]DAE[dP]K(Chol)-NH2 (also: x TFA salt) [Tyr-Pro-Tyr-Phe-Ile-Pro-Leu-Gly-Gly-Gly-Glu-Val-Asn-Sta-Asp-Ala-Glu-DPro-Lys(Chol)-NH2 x TFA]	18
YPYFIPLGGGEVN[Sta]VAE[dP]K(C14)-NH2 (also: x TFA salt) [Tyr-Pro-Tyr-Phe-Ile-Pro-Leu-Gly-Gly-Gly-Glu-Val-Asn-Sta-Val-Ala-Glu-DPro-Lys(C14)-NH2 x TFA]	140
YPYFIPL[Aun]EVN[Sta]VAE[dP]K(Chol)-NH2 (also: TFA salt) [Tyr-Pro-Tyr-Phe-Ile-Pro-Leu-NH(CH2)10CO-Glu-Val-Asn-Sta-Val-Ala-Glu-DPro-Lys(Chol)-NH2 x TFA]	0.36
YPYFIPLGGEVN[Sta]VAE[dP]K(Chol)-NH2 (also: x TFA salt) [Tyr-Pro-Tyr-Phe-Ile-Pro-Leu-Gly-Gly-Glu-Val-Asn-Sta-Val-Ala-Glu-DPro-Lys(Chol)-NH2 x TFA]	0.27
LIYFPYPGGGEVN[Sta]VAE[dP]K(Chol)-NH2 (also: x TFA salt) [Leu-Ile-Tyr-Phe-Pro-Tyr-Pro-Gly-Gly-Gly-Glu-Val-Asn-Sta-Val-Ala-Glu-DPro-Lys(Chol)-NH2 x TFA]	0.22
YPYFIPLGGGEVN[Sta]VAE[dP]K(Lauroyl)-NH2 (also: x TFA salt) [Tyr-Pro-Tyr-Phe-Ile-Pro-Leu-Gly-Gly-Gly-Glu-Val-Asn-Sta-Val-Ala-Glu-DPro-Lys(C12)-NH2 x TFA]	450
YPYFIPL[PEG3]EVN[Sta]VAE[dP]K(Chol)-NH2 (also: TFA salt) [Tyr-Pro-Tyr-Phe-Ile-Pro-Leu-PEG(3)-Glu-Val-Asn-Sta-Val-Ala-Glu-DPro-Lys(Chol)-NH2 x TFA]	0.043
YPKFIPLGGGEVN[Sta]VAE[dP]K(Chol)-NH2 (also: x 2TFA salt) [Tyr-Pro-Lys-Phe-Ile-Pro-Leu-Gly-Gly-Gly-Glu-Val-Asn-Sta-Val-Ala-Glu-DPro-Lys(Chol)-NH2 x 2TFA]	0.0135
B1	0.0024
YPYFIPLGGGEVN[Sta]VAE[dP]K(Chol)-NH2 (also: x TFA salt) [Tyr-Pro-Tyr-Phe-Ile-Pro-Leu-Gly-Gly-Gly-Glu-Val-Asn-Sta-Val-Ala-Glu-DPro-Lys(Chol)-NH2 x TFA]	0.027
YPYFIPL[Ahx]EVN[Sta]VAE[dP]K(Chol)-NH2 (also: TFA salt) [Tyr-Pro-Tyr-Phe-Ile-Pro-Leu-NH(CH2)5CO-Glu-Val-Asn-Sta-Val-Ala-Glu-DPro-Lys(Chol)-NH2 x TFA]	0.075
YPYFIPLGGGEVN[Sta]VAEFK(Chol)-NH2 (also: x TFA salt) [Tyr-Pro-Tyr-Phe-Ile-Pro-Leu-Gly-Gly-Gly-Glu-Val-Asn-Sta-Val-Ala-Glu-Phe-Lys(Chol)-NH2 x TFA]	0.19
LIYFPYPGGGGEVN[Sta]VAE[dP]K(Chol)-NH2 (also: x TFA salt) [Leu-Ile-Tyr-Phe-Pro-Tyr-Pro-Gly-Gly-Gly-Gly-Glu-Val-Asn-Sta-Val-Ala-Glu-DPro-Lys(Chol)-NH2 x TFA]	0.28
YPYFIPLGG[dK]EVN[Sta]VAE[dP]K(Chol)-NH2 (also: x 2TFA salt) [Tyr-Pro-Tyr-Phe-Ile-Pro-Leu-Gly-Gly-DLys-Glu-Val-Asn-Sta-Val-Ala-Glu-DPro-Lys(Chol)-NH2 x 2TFA]	0.118
YPYFIPLKGGEVN[Sta]VAE[dP]K(Chol)-NH2 (also: 2TFA salt) [Tyr-Pro-Tyr-Phe-Ile-Pro-Leu-Lys-Gly-Gly-Glu-Val-Asn-Sta-Val-Ala-Glu-DPro-Lys(Chol)-NH2 x 2TFA]	0.0235
YPYFIPL[dK]GGEVN[Sta]VAE[dP]K(Chol)-NH2 (also: x 2TFA salt) [Tyr-Pro-Tyr-Phe-Ile-Pro-Leu-DLys-Gly-Gly-Glu-Val-Asn-Sta-Val-Ala-Glu-DPro-Lys(Chol)-NH2 x 2TFA]	0.177
